Test results as given in article PMC4843787 (Biochimica et biophysica acta, 2015).
Where a chain is given by its changes, count along the chain named. In names and notes the source's numbering stands.

B1: amicyanin from Paracoccus denitrificans, wild type, reduced Cu(I) form (natural protein, UniProt P22364 27-131, looked up)
chain: DKATIPSESPFAAAEVADGAIVVDIAKMKYETPELHVKVGDTVTWINREAMPHNVHFVAGVLGEAALKGPMMKKEQAYSLTFTEAGTYDYHCTPHPFMRGKVVVE
B2: P94A amicyanin, reduced Cu(I) form (natural protein, Paracoccus denitrificans, UniProt P22364 27-131, looked up)
chain: B1 chain with P94A

Biological target: T1, MauG, bis-Fe(IV) redox state (UniProt Q51658 21-387)
T1 sequence (looked up): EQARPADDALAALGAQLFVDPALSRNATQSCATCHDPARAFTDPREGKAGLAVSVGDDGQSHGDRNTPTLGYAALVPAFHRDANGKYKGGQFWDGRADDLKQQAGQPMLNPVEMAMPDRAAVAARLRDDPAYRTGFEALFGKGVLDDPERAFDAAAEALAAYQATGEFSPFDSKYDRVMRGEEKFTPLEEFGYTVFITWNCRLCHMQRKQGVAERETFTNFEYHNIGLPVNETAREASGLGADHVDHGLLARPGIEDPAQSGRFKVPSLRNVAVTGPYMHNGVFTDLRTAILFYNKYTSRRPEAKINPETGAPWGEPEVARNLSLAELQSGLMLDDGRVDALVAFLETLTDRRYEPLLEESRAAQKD
Assay: stopped-flow single-turnover kinetics

Binder | Kd [µM]
B1 | 165 ± 50
B2 | 240 ± 82
